Our source for the expression_or_secretion values is article PMC4519966.

This series in a line: Western blot (data not shown). Particulars: glycan lost; control: wild-type NOS1AP. For orientation: In western blotting, separated proteins are transferred to a membrane and probed.
Turning to NOS1AP (CAPON): S269A, the expression_or_secretion entry was “no change”.

With NOS1AP (CAPON): S271A, the expression_or_secretion entry is “no change”.

Take NOS1AP (CAPON): S47A: the expression_or_secretion entry was “no change”.

Take NOS1AP (CAPON): S204A: the expression_or_secretion entry was “no change”.

Consider NOS1AP (CAPON): S183A, for which the expression_or_secretion result is “no change”.
